# Results from patent publication US20230279451A1, “METHODS FOR THE BIOCATALYTICAL MANUFACTURING OF DIHYDROCHALCONES” (SYMRISE AG, priority 2019, published 2023).
# Where a chain is given by its changes, count along the chain named. Names may count otherwise. “Also recorded” adds a separate entry of the source.
# B1: L92Q: variant of the O-methyltransferase from Myxococcus xanthus (MxSafC_L92Q) (protein)
# chain: MIHHVELTQSVLQYIRDSSVRDNDILRDLREETSKLPLRTMQIPPEQGQLLSLLVRLIGARKTLEVGVFTGYSTLCAALALPADGRVIACDQSEEWVSIARRYWQRAGVADRIEVRLGDAHHSLEALVGSEHRGTFDLAFIDADKESYDFYYEHALRLVRPGGLIILDNTLWSGKVADPSVVGDPETDSLRRINAKLLTDERVDLSMLPIADGLTLARKR
# modifications: MxSafC_L92Q
# B2: S173H: variant of the O-methyltransferase from Myxococcus xanthus (MxSafC_S173H) (protein)
# chain: B1 chain with Q92L, S173H
# modifications: MxSafC_S173H
# B3: W96A: variant of the O-methyltransferase from Myxococcus xanthus (MxSafC_W96A) (protein)
# chain: B1 chain with Q92L, W96A
# modifications: MxSafC_W96A
# B4: D119P: variant of the O-methyltransferase from Myxococcus xanthus (MxSafC_D119P) (protein)
# chain: B1 chain with Q92L, D119P
# modifications: MxSafC_D119P
# B5: M5: quintuple mutant of MxSafC combining mutation T40P/L92Q/W96A/D119P/S173H (protein)
# chain: B1 chain with T40P, W96A, D119P, S173H
# modifications: MxSafC_M5
# notes: quintuple mutant of MxSafC combining mutation T40P/L92Q/W96A/D119P/S173H
# B6: T40P: variant of the O-methyltransferase from Myxococcus xanthus (MxSafC_T40P) (protein)
# chain: B1 chain with T40P, Q92L
# modifications: MxSafC_T40P
# B7: T40P/S173H: double mutant variant of the O-methyltransferase from Myxococcus xanthus (MxSafC_T40P_S173H) (protein)
# chain: B1 chain with T40P, Q92L, S173H
# modifications: MxSafC_T40P_S173H
# Assay: Biotransformation of 3-hydroxyphloretin with lysed E. coli BL21(DE3) cells expressing MxSafC wild-type or variants (LC-MS)
# Assay type: biochemical
# Settings: 3 mM 3-hydroxyphloretin, 3 mM S-adenosylmethionine, 25° C., 24 hours; for product specificity towards hesperetin dihydrochalcone: compared with wild-type MxSafC, FIG. 10 dark grey; for enzyme activity (conversion of 3-hydroxyphloretin): FIG. 10 light grey bars
# Source text: FIG. 10: Biotransformation of 3-Hydroxyphloretin with lysed E. coli BL21 (DE 3) cells, which express MxSafC (wild-type (wt), cf. SEQ ID NOs: 13, 14, 55), or specific variants or mutants thereof (cf. SEQ ID NOs: 56 to 76). Hesperetin dihydrochalcone as well as homoeriodictyol (HED) dihydrochalcone are the products. Conversion of 3-hyroxyphloretin (30HP) shown in light grey, product specificity towards hesperetin dihydrochalcone is shown in dark grey.
# MxSafC mutant variants correspond to SEQ ID NOs: 56 to SEQ ID NO: 76. These were synthesized (BioCat GmbH, Heidelberg, Germany) and cloned into pET28a between NcoI and HindIII restriction sites, respectively. SEQ ID NOs: 13, 14 and 55 show the respective wild-type sequence. By artificial design, certain mutants were created to optimize the activity and/or specificity of the MxSafC enzyme. Interesting single, double and quintuple mutants could be identified, as shown in detail in the results in FIG. 10.
# First, various positions within MxSafC (SEQ ID NO: 14) were randomly mutated. All mutants were characterized and checked for activity. In a second round, targeted mutations and combinations thereof were tested in an iterative manner to identify suitable mutants for commercial purposes that have a good activity and conversion rate, but at the same time a good or even improved product specificity. Indeed, certain variants could be identified that fulfill these needs.
# 30 E. coli BL21(DE3) cells, each containing a plasmid from Table 1, were used to inoculate 5 ml of LB medium (Carl Roth GmbH, Karlsruhe, Germany) with the corresponding antibiotic. After incubation for 16 h (37° C., 200 rpm), 20 ml TB medium (Carl Roth GmbH, Karlsruhe, Germany) were inoculated with an OD600 of 0.1 from these cultures. These main cultures were incubated (37° C., 200 rpm) until an OD600 of 0.5-0.8 was achieved. After addition of 1 mM isopropyl-β-D-thiogalactopyranoside, the cultures were incubated for a further 16 h (22° C., 200 rpm). The main culture was centrifuged (10 min, 10,000 rpm), the pelleted cells were decomposed using the B-PER protein extraction reagent (Thermo Fisher Scientific, Bonn, Germany) according to the manufacturers specifications. After additional centrifugation (10 min, 14,000 rpm) the supernatant was mixed with 3 mM 3-hydroxyphloretin, 3 mM S-adenosylmethionine, 0.1 mM MgCl2. The reaction mixture was incubated at 25° C. for 24 hours. After stopping the assay with 20% trichloroacetic acid ([…] final concentration) the sample was centrifuged and the supernatant used for LC-MS analysis.
molecule,measurement,value
B1,product specificity towards hesperetin dihydrochalcone,nearly balanced
B2,enzyme activity (conversion of 3-hydroxyphloretin),particularly favorable
same,product specificity towards hesperetin dihydrochalcone,performed better than the wild-type
B3,product specificity towards hesperetin dihydrochalcone,performed better than the wild-type
B4,product specificity towards hesperetin dihydrochalcone,nearly balanced
B5,product specificity towards hesperetin dihydrochalcone,performed better than the wild-type
B6,enzyme activity (conversion of 3-hydroxyphloretin),particularly favorable
same,product specificity towards hesperetin dihydrochalcone,performed better than the wild-type
B7,enzyme activity (conversion of 3-hydroxyphloretin),a technically reasonable activity
same,product specificity towards hesperetin dihydrochalcone,performed better than the wild-type; also recorded: a good specificity
